Results reported in publication PMC8394153, “Novel Glutamate–Putrescine Ligase Activity in Haloferax mediterranei: A New Function for glnA-2 Gene” (Biomolecules, 2021).

Biological target: the molecule itself
Test: SEC; HiPrep 16/60 Sephacryl S-300 High-Resolution column; eluted in 20 mM Tris-HCl, 2 M NaCl, 10 mM MgCl2, pH 7.5, 0.5 mL/min, room temperature; standard proteins 12.5 to 678 kDa; oligomer size from 667 kDa against a 55 kDa monomer (SDS-PAGE)

B1: recombinant GlnA-2 protein (HFX_1688) from Haloferax mediterranei (enzyme, UniProt I3R584 1-446, looked up)
chain: MSDTSTVKSQCEDQNIDLIRLLYVTPSGVIQANTVDVSEVDAAVESGVTLSEVIQVYDAFACRNRNSRFDAVGEVHLCPDPETFRPLPYADRAGAMLCNIRTLDGEPWDVDSRSSLQSVERDLRAKGLSPQVAFESEFSLFSRDGDGKINRGDEAGAYRTESIRGTHDAILHIVDALKAQGIDVKKYHPEFSPGKHEIVTGHHTGLEAADEHLLLRETVKSVAEQDGYQATFLPKPFDDGTNGCHINVSLWNGENQFFDPNHGDISETARQFIAGVLDHAPAVLALTAPTVNSYSRLQPRHGAAGYICWGWLNREALIRVPAPAQGREADSTRIEFRGADNTANPYLGLIGLLAAGNDGIERELEPPEPVSVDPCDLTDAQRTAKGIKRLPQTLGEALDALETNEVLREALGPDLFDAYVEVKRNHWKLFTESAGAWQRERLRNLY
notes: GlnA-2 of Haloferax mediterranei R4 (ATCC 33500T), locus HFX_1688, annotated as glutamine synthetase; monomer 55 kDa by SDS-PAGE; also called glutamate–putrescine ligase; HFX_01688; source: heterologous expression in E. coli, purified (gel filtration); copies: 12
- stoichiometry N: 12
